Source: patent US20200317768A1 (published 2020)
Numbering of substitutions follows the chain as printed.

T1: cynomolgus monkey FcγRIIa1 extracellular domain with C-terminal His-tag (cynomolgus monkey)
T1 construct: Expressed in FreeStyle 293 cells and purified; also called cyno FcγRIIa1; cynoFcgRIIa1; not shown: C-terminal His-tag
T1 chain: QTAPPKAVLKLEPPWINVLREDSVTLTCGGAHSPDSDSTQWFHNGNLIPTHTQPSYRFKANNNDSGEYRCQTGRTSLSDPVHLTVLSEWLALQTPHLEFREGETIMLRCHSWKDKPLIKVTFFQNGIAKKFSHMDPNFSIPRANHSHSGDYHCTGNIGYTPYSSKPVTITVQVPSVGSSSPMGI

T2: cynomolgus monkey FcγRIIa2 extracellular domain with C-terminal His-tag (cynomolgus monkey)
T2 construct: Expressed in FreeStyle 293 cells and purified; also called cyno FcγRIIa2; cynoFcgRIIa2; not shown: C-terminal His-tag
T2 chain: T1 chain with P95T, T121A, I127K, A128S, K130N, D135N, R142Q

T3: cynomolgus monkey FcγRIIIaS extracellular domain with C-terminal His-tag (cynomolgus monkey, UniProt Q8SPW2 21-206 at identity 1.00))
T3 construct: Expressed in FreeStyle 293 cells and purified; also called cyno FcγRIIIaS; cynoFcγRIIIaS; not shown: C-terminal His-tag
T3 chain: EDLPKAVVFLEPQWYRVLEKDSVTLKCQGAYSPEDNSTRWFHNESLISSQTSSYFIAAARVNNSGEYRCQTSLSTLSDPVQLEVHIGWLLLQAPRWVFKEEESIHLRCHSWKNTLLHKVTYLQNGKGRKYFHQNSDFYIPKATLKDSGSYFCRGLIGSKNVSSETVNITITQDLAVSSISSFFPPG

T4: human FcγRIIaR extracellular domain with C-terminal His-tag (human, UniProt P12318 34-217)
T4 construct: Expressed in FreeStyle 293 cells and purified; also called human FcγRIIa (type R); FcgRIIaR; not shown: C-terminal His-tag
T4 chain: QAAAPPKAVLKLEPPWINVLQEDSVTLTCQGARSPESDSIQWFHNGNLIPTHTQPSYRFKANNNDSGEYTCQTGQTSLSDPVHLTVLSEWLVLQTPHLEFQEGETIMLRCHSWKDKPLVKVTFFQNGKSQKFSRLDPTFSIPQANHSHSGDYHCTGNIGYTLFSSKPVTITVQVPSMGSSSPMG

T5: human FcγRIIaH extracellular domain with C-terminal His-tag (human, UniProt P12318 34-217)
T5 construct: Expressed in FreeStyle 293 cells and purified; also called human FcγRIIa (type H); FcgRIIaH; not shown: C-terminal His-tag
T5 sequence: T4 chain with R134H

T6: cynomolgus monkey FcγRIIb extracellular domain with C-terminal His-tag (cynomolgus monkey)
T6 construct: Expressed in FreeStyle 293 cells and purified; also called cyno FcγRIIb; cynoFcγRIIb; not shown: C-terminal His-tag
T6 chain: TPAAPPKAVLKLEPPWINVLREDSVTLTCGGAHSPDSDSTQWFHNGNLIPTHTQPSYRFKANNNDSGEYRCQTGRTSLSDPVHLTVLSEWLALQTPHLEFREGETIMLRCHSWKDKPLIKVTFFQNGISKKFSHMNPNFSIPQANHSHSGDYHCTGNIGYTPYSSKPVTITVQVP

T7: cynomolgus monkey FcγRIIa3 extracellular domain with C-terminal His-tag (cynomolgus monkey)
T7 construct: Expressed in FreeStyle 293 cells and purified; also called cyno FcγRIIa3; cynoFcgRIIa3; not shown: C-terminal His-tag
T7 chain: T1 chain with P95T, T121A, A128S, H133P, D135N

B1: M103205H795-MY182 / M103202L889-SK1 (antibody, human IgG1, kappa)
heavy: QVTLKESGPVLVKPTETLTLTCTVSGIDLSHDDISWVRQAPGKGLEWVGIISYAGSTYYASWAKGRLTISKDTSKNQVVLTMTNMDPVDTATYYCARGVPAYSHGGDLWGQGTLVTVSSASTKGPSVFPLAPSSKSTSGGTAALGCLVKDYFPEPVTVSWNSGALTSGVHTFPAVLQSSGLYSLSSVVTVPSSSLGTQTYICNVNHKPSNTKVDKKVEPKSCDKTHTCPPCPAPELLNGPSVFLFPPKPKDTLMISRTPEVTCVVVDVSEEDPEVKFNWYVDGVEVHNAKTKPREEQYNSTYRVVSVLTVLHQDWLNGKEYKCKVSNKALPAPIEKTISKAKGQPREPQVYTLPPSREEMTKNQVSLTCLVKGFYPSDIAVEWESNGQPENNYKTTPVVLDSDGSFFLYSKLTVDKSRWQQGNVFSCSVMHEALHNHYTQKSLSLSP
light: DIVMTQSPATLSLSPGERATLSCTSSQSVYHANWLSWFQQKPGQPPKLLIYWASTLAYGVPSRFSGSGSGTDFTLTISSLQPEDAATYYCAGGYGGGRYAFGQGTKVEIKRTVAAPSVFIFPPSDEQLKSGTASVVCLLNNFYPREAKVQWKVDNALQSGNSQESVTEQDSKDSTYSLSSTLTLSKADYEKHKVYACEVTHQGLSSPVTKSFNRGEC
notes: Position 396 variant derived from MY052, expressed with M103202L889-SK1 as light chain
B2: M103205H795-MY183 / M103202L889-SK1 (antibody, human IgG1, kappa)
heavy: B1 heavy with V398W
light: B1 light
notes: as for B1
B3: M103205H795-MY184 / M103202L889-SK1 (antibody, human IgG1, kappa)
heavy: B1 heavy with V398Y
light: B1 light
notes: as for B1

Molecular target: T1, cynomolgus monkey FcγRIIa1 …
Assay: SPR (Biacore), antibody captured on chip, FcgR extracellular domain as analyte, 25 C

Row | Binder | Kd
1 | B1 | 2.1 µM
2 | B2 | 2.1 µM
3 | B3 | 1.9 µM

Molecular target: T2, cynomolgus monkey FcγRIIa2 …
Assay: as above

Row | Binder | Kd
4 | B1 | 2.2 µM
5 | B2 | 2 µM
6 | B3 | 2 µM

Molecular target: T3, cynomolgus monkey FcγRIIIaS …
Assay: as above

Row | Binder | Kd
7 | B1 | 3.5 µM
8 | B2 | 3.5 µM
9 | B3 | 3.3 µM

Molecular target: T8, human FcγRIIIaV extracellular domain with C-terminal His-tag (human, UniProt P08637 17-208)
T8 construct: Expressed in FreeStyle 293 cells and purified; also called FcgRIIIaV; not shown: C-terminal His-tag
T8 sequence (P08637 17-208 F176V): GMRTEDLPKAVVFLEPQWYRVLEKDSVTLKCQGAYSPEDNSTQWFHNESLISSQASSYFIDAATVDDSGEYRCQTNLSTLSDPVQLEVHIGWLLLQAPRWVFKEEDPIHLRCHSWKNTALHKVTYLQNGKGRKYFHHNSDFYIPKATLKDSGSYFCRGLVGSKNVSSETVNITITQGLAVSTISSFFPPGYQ
Assay: as above

Row | Binder | Kd
10 | B1 | 7 µM
11 | B2 | 7.2 µM
12 | B3 | 6.8 µM

Molecular target: T4, human FcγRIIaR extracellular domain …
Assay: as above

Row | Binder | Kd
13 | B1 | 2.1 µM
14 | B2 | 2.1 µM
15 | B3 | 2 µM

Molecular target: T5, human FcγRIIaH extracellular domain …
Assay: as above

Row | Binder | Kd
16 | B1 | 1.3 µM
17 | B2 | 1.2 µM
18 | B3 | 1.1 µM

Molecular target: T6, cynomolgus monkey FcγRIIb extracellular …
Assay: as above

Row | Binder | Kd
19 | B1 | 0.96 µM
20 | B2 | 0.97 µM
21 | B3 | 0.98 µM

Molecular target: T7, cynomolgus monkey FcγRIIa3 …
Assay: as above

Row | Binder | Kd
22 | B1 | 7.8 µM
23 | B2 | 8.4 µM
24 | B3 | 8.4 µM
